The nanobody polyreactivity screen of Harvey et al. (2022)

Test: yeast display, Sf9 membrane polyspecificity reagent, FACS + sequencing; frameworks hold sequencing errors
Outline: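 Nanobodies from a synthetic yeast display library (Saccharomyces cerevisiae BJ5465), induced 36–48 hours with galactose, were stained 1 hour at 4 °C with 10% biotinylated, detergent-solubilized Sf9 membrane reagent, enriched on streptavidin microbeads, then FACS-sorted. Anti-HA (expression) and streptavidin (reagent binding) fluorescence set low and high (top ~1%) gates. Polyreactivity labels come from the gate of origin. Genes were colony-PCR amplified, MiSeq 2 × 250 sequenced and filtered by CDR length.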

Sequence	polyreactivity (PSR sort gate)
QVHLVESGGGLVQAGGSLRVSCAASGSIFLDNAMGWYRQAPGKERELVADISYSGGSTYYADSVKGRFTISRDNAKNTVYLQMISLKPEDTAVYYCAAGVQLTVPPLRSSVTEYDYWGQGSQVTVSS	low polyreactivity
QVQLVESGGGLVQAGGSLRLSCAASGITFDEYAMGWYIQAPGKERELVASISAGSTYYADSVKGRFTISRDNAKNTVYLQMNSLKPEDTAVYYCAVVVDYDAYRYWGYDYWGQGTQVTVSS	high polyreactivity
QVQLVESGRGLVQAGGSLRLSCAASGRTFYFYAMGWYRQAPGKEREFVAAITSSGVSTYYADSVKGRFTISRDNAKNTVYFQMISQKPEDSAVYYCAADDWDWENDYWGQGTQVTVSS	low polyreactivity
QVQLVESGGGLVQAGGSLRLSCAASGRTFEDNAMGWYRQAPGKERELVAAISSDGSTNYADSVKGRFTISRDNAKNTVYLQMNSLKPEDTAVYYCNATVYWPYDWRTSDYWGQGTQVTVSS	low polyreactivity
QVQLVESGGGLVQAGCSLRLSCAASGSTSAYYVMGWNRQAPGKARELVAAIDFSGDSTYYADSVKGRFTISRDNAKNTVYLQMNSLKPEDTAVYYCAAELFYYSSLVTYEYWGQGTQVTVSS	high polyreactivity
QVQLVESGGGLVQAGGSLRLSCAASGSIISSYAMGWYRKAPGKETELLAVITRSGGSTYYADSVKGRFTISRDNAKNTVYLQMKSLKPVDTAVYYCNAQPTRIKLPSYDYWGQGTQVTVST	high polyreactivity
QVLLVESAGGLVQAGGSLRLSCAASGRTFYRYAMGWYRQAPGKERELVAVISWTSGSTYYADSVKGRFTISRDNAKNTVYLQMNSLKPEDTAVYYCAARRGGSYRYEYWGQGTQVTVSS	high polyreactivity
QVQLVESGGGLVQAGGSLRLSCAASGFTFWEYAMGWYRQAPGKERELVAAISSRGTRTYYADSVKGRFTISRDNAKNTVYLQMNSLKPEDTAVYYCATAIPDPDYIHNYWGQGTQVTVSS	high polyreactivity
QVQLVESGGGLVQAGGSLRLSCAASGSTFTGYAMGWYRQAPGNEREFVAAISRRGGSTYYADSVKGRFTISRDNAKNTVYLQMNSLKPEDTAVYYCAARGVGGTVPTRYDYWGQGTQVTVSS	high polyreactivity
QVQLVESGGGLVQAGGSLRLSCAASGRTIYSYAMVLNTQAPGKERELVAAISRRGGSTYYADSVKGRFTISRDNAKNTVYLQLNSLIPEDTAVYYCAKRYTPLPYKGIWYYYWGQGTQVTVSS	high polyreactivity
KVQLVESGGGLVQAGGSLRISCAASGSTLYRYAMGWYRQAPGKERELVAAISSSGGSTYYADSVKGRFTISRDNAKNTVYLQMNSLKPEDTAVYYCARVAPASGVRWYYYWGQGTQVTVSS	high polyreactivity
QVQLVESGGGLVQAGGSLRLSCAASGTTFVWYAMGWYRQAPGKERELVAAISLSGGSTYYADSVKGRFTISRDNAKKTVYLQMNSLKPEDTAVYYCAAETYAYLFHTYDYWGQGSQVTVSS	low polyreactivity
QVQLVESGGGLVQAGGSLRVSCAASGSIFCPYTMGWNRQAPGKERELVAAITRSGGSTYYADSVKGRFTISRDNGKNTVYLQMNSLKPEDTAVFYCAARGQAYSGDRMYYWGQGTQVTVSS	high polyreactivity
QVQLVESGGGLVQAGGSLRLSCAAYGNIIYYNAMGWYRQATGKERELVASITWSGGSTYYADSVKGRFTISRDNAKNTVYLQMNSLKPEDTAVYYCAAGYSPPKPYSGGYYYWGQGTQVTVSS	low polyreactivity
QVQLVESGGGLVQAGGSLRLSCAASGSIFETNAMGWYRQAPGKERELVAAITGSGGSTYYADSVKGRFTISRDNAKNTVYLQMNSLIPVDTEVYYCAADSSGQSRFGYWGQGTQVTVSS	low polyreactivity
QVQLVESGGGLVQAGGSLRLRCAASGRIFGYNDMGWYRQAPGKERELVAAINWTGGSTYYADSVKARFTISRDNSKNTVYLQMNSLKPEDTAVYYCNADARTKWVQTHTDFISDYDYWGQGTQVTVSS	low polyreactivity

Sequence	polyreactivity (PSR sort gate)
QVQLVESGGGLVQAGGSLRLSCAASGFIFITVNAMGWYRQAPGKEREFVAAITRSGTGTYYADSVKGRFTISRDNAKNTVYLQMNSLKPVDTAVYYCAADATSTGAYDYWGQGTQVTVSS	low polyreactivity
QVQLVESGGGLVQAGGSLRLSCAASGFIFSWYAMGWYRQAPGKERELVAAISYSGSNTYYADSVKGRFTISRDNAKNTVYLQMNSLKPEDTAVYYCAATLGSRWAIYDYWGQGTQVTVSS	high polyreactivity
QVQLVESGGGLVQAGGSLRLSCAASGRIFGTYAMGWYRQAPGKERELVARITRIGTRTYYADSVKGRFTISRDNAKNTVYLQMNSLKPEDTAVDYCAAGHYSYWVNTVKRYNTGYDYWGQGTQVTVSS	high polyreactivity
QVQLVESGGGLVQAGGSLRLSCAASGSIFRSYVMGWSRQAPGKERELVAAISRRGVRTFYADSVKGRFTISRDNAKNTVYLQMNSLKPEDTAVYYCAAQPYKGTGYDYWGQGTQVTVSS	high polyreactivity
QVQLVESGGGLVQAGGSLRLSCAASGITFYDYAMGWYRQAPGKERELVAAINSSGVRTYYADSVKGRFTISRDNAKNTVYLQMNSLKPEVTAVYYCAAVRRGPYISRSDMDYYWGQGTQVTVSS	high polyreactivity
QVQLVESGGGLVHAGGSLRLSCAASGRIFRRYAMGWYRQAPGKERELVASISSGGSTNYADSLKGRFTISRDNAKNTVYLQMNSLNPEDTAVYYCNVYYGYFRSRYCYWGQGTQVTVSS	high polyreactivity
QVQLVESGGGLVQAGGSLRLSCAASGFIFSGNAMGWYRQAPGKERELVAAISTSGGRTYYADSVKGRFTISRDNAKNSDYLQMKSLKPEDTAVYYFNRAPWYRYTRDKYEYWGQGTQVTVSS	high polyreactivity
QVQLVESGGGLVQAGGSLRLSCAASGFTFGENAIGWYRQAPGKERELVAAIRYSGGSTYYADSVKGRFTISRDNAKNTVYLQMNSLKPEDTAVYYCNADTYALGAAVIPGDEYWGQGTQVTVSS	low polyreactivity
QVQLVESGVGLVHAGGSLRLSCAASGFTFKENAMGWYRQAPGKERELVAAISSTGGSTYYADSVKGRFTISRDIAKNTVYLQINRLKPEDTAVYYCAASTYWYDGDYWGQGTQVTVSS	high polyreactivity
QVQLVESGGGLVQAGGSLRLSCAASGSIFYRYTMGWYRQAPGKERELVAAISSRGGSTYYADSVKGRFTISRDNAKNTVYLQMNSLKPEDTAVYYCAARFSYWAPSKGYGYWGQGTQVTVSS	high polyreactivity
QVQLVESGGGLVQAGGSLRLSCAASGFIFYRYAMGWYRQAPGKEREFVAVISKSGGRTYYADSVKGRFTISRDNAKNTVYLQMNSLKPEDTAVYYCNRVYRPSRYDYWGQGTQVTVSS	high polyreactivity
QVQLVESGGGVVQAGGGLRLSCAASGRTFIGNAMGWYRQAPGKEREFVAYITLSGGSTYYADSVKGRFTISRDNATINVYLQMNSLKPEDRAVYYCADKRFFGYLGYNRGGSRYDYWGQGTQVTVSS	high polyreactivity
QVQLVESGGGLVQAGGSLRLSCAASVSTIARYAMGRYRQAPGKERELVAAISRTGRTYYADSVKGRFTISRDNAKNTVYLQMNSLKPEDTAVYYCNAYYGPRGYGYWGQGTQVTVSS	high polyreactivity
QVQLVESGGGVVQAGGSLRLSCAASGFILRAYAMGWYRQAPGKERELVAAITSATSTNYADSVKGRFTISRDNAKNTVYLQMNSLKPEDTAVYYCAADGGGGEFSYDSWGQGTQVTVSS	low polyreactivity
QVQLVESGGGLVQAGGSLRLSCAASGFTFYSNAMGWYRQAPGKERELVAAINWGGGSTYYADSVKGRFTISRDNAKNTVNLQMNSLKPEDTAVYYCAAEPIWEYWNGVSYAYDYWGQGTQVTVSS	low polyreactivity
